Laboratory results from patent US20140271457A1 (AbbVie / Abbott, published 2014).

What follows are binders tested against Recombinant Human IL-13 (human, UniProt P35225 35-146, limits assumed) (assay: cell-based or functional assay).
Recombinant Human IL-13, sequence (P35225 35-146 limits assumed): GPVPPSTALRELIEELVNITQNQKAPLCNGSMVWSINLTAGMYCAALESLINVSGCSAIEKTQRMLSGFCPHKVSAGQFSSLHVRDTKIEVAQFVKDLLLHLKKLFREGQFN

Row | IL-13 Neutralization Assay IC50 [nM] | Binder
1 | 0.132 | DVD3014 (bispecific antibody, human IgG1, kappa) heavy: not shown light: DIQMTQSPSSLSASVGDRVTISCRASQDIRNYLNWYQQKPGKAPKLLIFYTSKLHSGVPSRFSGSGSGTDYTLTISSLQPEDIATYYCQQGLTPPLTFGGGTKVEIKRTVAAPDIQMTQSPSSLSASVGDRVTITCRASQDIENYLNWYQQKPGKAPKLLIYYTSRLQSGVPSRFSGSGSGTDFTLTISSLQPEDFATYFCQQGNTQPPTFGQGTKLEIKRTVAAPSVFIFPPSDEQLKSGTASVVCLLNNFYPREAKVQWKVDNALQSGNSQESVTEQDSKDSTYSLSSTLTLSKADYEKHKVYACEVTHQGLSSPVTKSFNRGEC
2 | 0.111 | DVD3017 (bispecific antibody, human IgG1, kappa) heavy: not shown light: DIQMTQSPSSLSASVGDRVTISCRASQDIRNYLNWYQQKPGKAPKLLIFYTSKLHSGVPSRFSGSGSGTDYTLTISSLQPEDIATYYCQQGLTPPLTFGGGTKVEIKRTVAAPDIQMTQSPSSLSASVGDRVTITCRASQDIENYLNWYQQKPGKAPKLLIYYTSRLQSGVPSRFSGSGSGTDFTLTISSLQPEDFATYFCQQGNTQPPTFGQGTKLEIKRTVAAPSVFIFPPSDEQLKSGTASVVCLLNNFYPREAKVQWKVDNALQSGNSQESVTEQDSKDSTYSLSSTLTLSKADYEKHKVYACEVTHQGLSSPVTKSFNRGEC
3 | 0.075 | AB399 (antibody, V domains shown) VH: EVQLVQSGAEVKKPGASVKVSCKASGYTFTSYWMHWVRQAPGQGLEWIGNINPKGGSNIYNEKFQGRVTMTRDTSISTAYMELSRLRSDDTAVYYCARLDYFGDSFDLWGQGTTVTVSS VL: DIQMTQSPSSLSASVGDRVTITCRASQGIRNYLNWYQQKPGKAPKLLIYYASNLEVGVPSRFSGSGSGTDYTLTISSLQPEDFATYYCQQDNRFPYTFGGGTKVEIKR
4 | 0.098 | DVD3083 (bispecific antibody, human IgG1, kappa) heavy: not shown light: DIQMTQSPSSLSASVGDRVTITCRASQLVSSAVAWYQQKPGKAPKLLIYWASARHTGVPSRFSGSGSGTDFTLTISSLQPEDFATYYCQQHYKTPFTFGQGTKLEIKRGGSGGGGSGDVVMTQSPLSLPVTLGQPASISCRSSQSLVHSHGNTYLHWYQQRPGQSPRLLIYTVSNRFSGVPDRFSGSGSGTDFTLKISRVEAEDVGVYYCSQSTHVPYTFGGGTKVEIKRTVAAPSVFIFPPSDEQLKSGTASVVCLLNNFYPREAKVQWKVDNALQSGNSQESVTEQDSKDSTYSLSSTLTLSKADYEKHKVYACEVTHQGLSSPVTKSFNRGEC
5 | 0.067 | DVD3093 (bispecific antibody) heavy: not shown light: DIQMTQSPSSLSASVGDRVTITCKASQLVSSAVAWYQQKPGKAPKLLIYWASTLHTGVPSRFSGSGSGTDFTLTISSLQPEDFATYYCQQHYRTPFTFGQGTKLEIKRGGSGGGGSGDVVMTQSPLSLPVTLGQPASISCRSSQSLVHSHGNTYLHWYQQRPGQSPRLLIYTVSNRFSGVPDRFSGSGSGTDFTLKISRVEAEDVGVYYCSQSTHVPYTFGGGTKVEIKRTVAAPSVFIFPPSDEQLKSGTASVVCLLNNFYPREAKVQWKVDNALQSGNSQESVTEQDSKDSTYSLSSTLTLSKADYEKHKVYACEVTHQGLSSPVTKSFNRGEC
6 | 0.077 | DVD3013 (bispecific antibody, human IgG1, kappa) heavy: not shown light: DIQMTQSPSSLSASVGDRVTISCRASQDIRNYLNWYQQKPGKAPKLLIFYTSKLHSGVPSRFSGSGSGTDYTLTISSLQPEDIATYYCQQGLTPPLTFGGGTKVEIKRGGSGGGGSGDIQMTQSPSSLSASVGDRVTITCRASQDIENYLNWYQQKPGKAPKLLIYYTSRLQSGVPSRFSGSGSGTDFTLTISSLQPEDFATYFCQQGNTQPPTFGQGTKLEIKRTVAAPSVFIFPPSDEQLKSGTASVVCLLNNFYPREAKVQWKVDNALQSGNSQESVTEQDSKDSTYSLSSTLTLSKADYEKHKVYACEVTHQGLSSPVTKSFNRGEC
7 | 0.587 | DVD3084 (bispecific antibody, human IgG1, kappa) heavy: not shown light: DIQMTQSPSSLSASVGDRVTITCRASQLVSSAVAWYQQKPGKAPKLLIYWASARHTGVPSRFSGSGSGTDFTLTISSLQPEDFATYYCQQHYKTPFTFGQGTKLEIKRTVAAPDVVMTQSPLSLPVTLGQPASISCRSSQSLVHSHGNTYLHWYQQRPGQSPRLLIYTVSNRFSGVPDRFSGSGSGTDFTLKISRVEAEDVGVYYCSQSTHVPYTFGGGTKVEIKRTVAAPSVFIFPPSDEQLKSGTASVVCLLNNFYPREAKVQWKVDNALQSGNSQESVTEQDSKDSTYSLSSTLTLSKADYEKHKVYACEVTHQGLSSPVTKSFNRGEC
8 | 0.082 | DVD3087 (bispecific antibody, human IgG1, kappa) heavy: not shown light: DIQMTQSPSSLSASVGDRVTITCRASQLVSSAVAWYQQKPGKAPKLLIYWASARHTGVPSRFSGSGSGTDFTLTISSLQPEDFATYYCQQHYKTPFTFGQGTKLEIKRTVAAPDVVMTQSPLSLPVTLGQPASISCRSSQSLVHSHGNTYLHWYQQRPGQSPRLLIYTVSNRFSGVPDRFSGSGSGTDFTLKISRVEAEDVGVYYCSQSTHVPYTFGGGTKVEIKRTVAAPSVFIFPPSDEQLKSGTASVVCLLNNFYPREAKVQWKVDNALQSGNSQESVTEQDSKDSTYSLSSTLTLSKADYEKHKVYACEVTHQGLSSPVTKSFNRGEC
9 | 0.444 | DVD3094 (bispecific antibody) heavy: not shown light: DIQMTQSPSSLSASVGDRVTITCKASQLVSSAVAWYQQKPGKAPKLLIYWASTLHTGVPSRFSGSGSGTDFTLTISSLQPEDFATYYCQQHYRTPFTFGQGTKLEIKRTVAAPDVVMTQSPLSLPVTLGQPASISCRSSQSLVHSHGNTYLHWYQQRPGQSPRLLIYTVSNRFSGVPDRFSGSGSGTDFTLKISRVEAEDVGVYYCSQSTHVPYTFGGGTKVEIKRTVAAPSVFIFPPSDEQLKSGTASVVCLLNNFYPREAKVQWKVDNALQSGNSQESVTEQDSKDSTYSLSSTLTLSKADYEKHKVYACEVTHQGLSSPVTKSFNRGEC
10 | 0.12 | DVD3086 (bispecific antibody, human IgG1, kappa) heavy: not shown light: DIQMTQSPSSLSASVGDRVTITCRASQLVSSAVAWYQQKPGKAPKLLIYWASARHTGVPSRFSGSGSGTDFTLTISSLQPEDFATYYCQQHYKTPFTFGQGTKLEIKRTVAAPSVFIFPPDVVMTQSPLSLPVTLGQPASISCRSSQSLVHSHGNTYLHWYQQRPGQSPRLLIYTVSNRFSGVPDRFSGSGSGTDFTLKISRVEAEDVGVYYCSQSTHVPYTFGGGTKVEIKRTVAAPSVFIFPPSDEQLKSGTASVVCLLNNFYPREAKVQWKVDNALQSGNSQESVTEQDSKDSTYSLSSTLTLSKADYEKHKVYACEVTHQGLSSPVTKSFNRGEC
11 | 0.064 | DVD3096 (bispecific antibody) heavy: not shown light: DIQMTQSPSSLSASVGDRVTITCKASQLVSSAVAWYQQKPGKAPKLLIYWASTLHTGVPSRFSGSGSGTDFTLTISSLQPEDFATYYCQQHYRTPFTFGQGTKLEIKRTVAAPSVFIFPPDVVMTQSPLSLPVTLGQPASISCRSSQSLVHSHGNTYLHWYQQRPGQSPRLLIYTVSNRFSGVPDRFSGSGSGTDFTLKISRVEAEDVGVYYCSQSTHVPYTFGGGTKVEIKRTVAAPSVFIFPPSDEQLKSGTASVVCLLNNFYPREAKVQWKVDNALQSGNSQESVTEQDSKDSTYSLSSTLTLSKADYEKHKVYACEVTHQGLSSPVTKSFNRGEC
12 | 0.081 | DVD3016 (bispecific antibody, human IgG1, kappa) heavy: not shown light: DIQMTQSPSSLSASVGDRVTISCRASQDIRNYLNWYQQKPGKAPKLLIFYTSKLHSGVPSRFSGSGSGTDYTLTISSLQPEDIATYYCQQGLTPPLTFGGGTKVEIKRTVAAPSVFIFPPDIQMTQSPSSLSASVGDRVTITCRASQDIENYLNWYQQKPGKAPKLLIYYTSRLQSGVPSRFSGSGSGTDFTLTISSLQPEDFATYFCQQGNTQPPTFGQGTKLEIKRTVAAPSVFIFPPSDEQLKSGTASVVCLLNNFYPREAKVQWKVDNALQSGNSQESVTEQDSKDSTYSLSSTLTLSKADYEKHKVYACEVTHQGLSSPVTKSFNRGEC
